Results as given in article PMC4691284 (Developmental cell, 2015).

B1: FCHSD2 F-BAR domain (domain or fragment, human, UniProt O94868 8-282, looked up)
chain: VKVTQELKNIQVEQMTKLQAKHQAECDLLEDMRTFSQKKAAIEREYAQGMQKLASQYLKRDWPGVKADDRNDYRSMYPVWKSFLEGTMQVAQSRMNICENYKNFISEPARTVRSLKEQQLKRCVDQLTKIQTELQETVKDLAKGKKKYFETEQMAHAVREKADIEAKSKLSLFQSRISLQKASVKLKARRSECNSKATHARNDYLLTLAAANAHQDRYYQTDLVNIMKALDGNVYDHLKDYLIAFSRTELETCQAVQNTFQFLLENSSKVVRDYN
B2: FCHSD1 F-BAR domain (domain or fragment, human, UniProt Q86WN1 12-282, looked up)
chain: QEVKLRFLEQLSILQTWQQREADLLEDIRSYSKQRAAIEREYGQALQKLAGPFLKREGHRSGEMDSRGRTVFGAWRCLLDATVAGGQTRLQASDRYRDLAGGTGRSAKEQVLRKGTENLQRAQAEVLQSVRELSRSRKLYGQRERVWALAQEKAADVQARLNRSDHGIFHSRTSLQKLSTKLSAQSAQYSQQLQAARNEYLLNLVATNAHLDHYYQEELPALLKALVSELSEHLRDPLTSLSHTELEAAEVILEHAHRGEQTTSQVSWEQD
B3: Gas7 F-BAR domain (domain or fragment, human, UniProt O60861 196-456, looked up)
chain: TEWSYCDYFWADKKDPQGNGTVAGFELLLQKQLKGKQMQKEMSEFIRERIKIEEDYAKNLAKLSQNSLASQEEGSLGEAWAQVKKSLADEAEVHLKFSAKLHSEVEKPLMNFRENFKKDMKKCDHHIADLRKQLASRYASVEKARKALTERQRDLEMKTQQLEIKLSNKTEEDIKKARRKSTQAGDDLMRCVDLYNQAQSKWFEEMVTTTLELERLEVERVEMIRQHLCQYTQLRHETDMFNQSTVEPVDQLLRKVDPAKD

Target: the molecule itself
Assay: AUC

Protein | stoichiometry N
B1 | > 2 dimers
B2 | > 2 dimers
B3 | > 2 dimers
